Here are results for four molecules from article doi:10.1101/2025.11.02.686180.

Like-named read-outs stand apart in the source and are kept apart here. Bounds are passed on as bounds.

Data set [1] deals with T1, SARS-CoV-2 nucleocapsid protein (NP) (SARS-CoV-2, UniProt P0DTC9 1-419). In words: MST.
Data set [2] concerns the target T2, Tau441 (longest isoform of tau) (human, UniProt P10636-8 1-441). In words: competition.
The target in data set [3] is T3, thrombin (Tb) (UniProt P00734;P00734 328-363;364-622). In words: 0.1 ng/mL thrombin.
For data set [4], the target named is T1, SARS-CoV-2 nucleocapsid protein (NP). The data set is described as follows: MST. The source holds these as a separate data set.
Data set [5] has as its target T2, Tau441 (longest isoform of tau). The data set is described as follows: competition. The source holds these as a separate data set.
Data set [6] deals with T3, thrombin (Tb). The data set is described as follows: thrombin 0.02-20 pg/mL in water.

B1: Nor-Apt (ssDNA)
DNA: GCTGGATGTCGCTTACGACAATATTCCTTAGGGGCACCGCTACATTGACACATCCAGC
modifications: 3' C3 spacer
Regarding B1, the binding result in data set [1] is “binds”.
As to CGCTTACGACAATATTCCTTAGGGGCACCGCTACATTGACACATCCAGC (ssDNA, 3' C3 spacer) [N9-Apt], the binding result in data set [2] and in data set [3] was “no binding” throughout. This molecule also returned a binding signal in data set [4] of over 5 fold affinity vs Nor-Apt.
For CCTGTCAGGTCTTTGACGAGGCTTTTCTTC (ssDNA, 3' C3 spacer) [Tau aptamer (core)], the binding result in data set [5] was “binds”.
Consider AGTCCGTGGTAGGGCAGGTTGGGGTGACT (ssDNA, 3' C3 spacer) [thrombin aptamer 29 nt], for which the binding result in data set [6] was “binds”.
